According to paper PMC5383425, “Differential CLE peptide perception by plant receptors implicated from structural and functional analyses of TDIF-TDR interactions” (PLoS ONE, 2017):
Square brackets hold non-standard residues; d marks the D form. Ends that are not written are not given here. Hyp = O=C(O)[C@@H]1C[C@@H](O)CN1

How the values were obtained:
[1] = target: T1, ecdTDR F279 alanine mutant (Arabidopsis thaliana, UniProt Q9FII5 30-642, alanine substitution of F279); assay: ITC; 0.5–1 mM peptide titrated into 10–40 μM ecdTDR; 25°C; 10 mM sodium citrate, 100 mM NaCl, pH 5.5; fitted to one set of binding sites; MicroCal Auto-iTC200; settings: both partners purified
T1 construct: TDR/PXY of A. thaliana, extracellular domain, residues 30-642; The text says only 'mutational analyses' of F279; source: High Five insect cells (baculovirus), secreted, purified as the wild type (Ni-NTA, size-exclusion chromatography)
T1 sequence (looked up): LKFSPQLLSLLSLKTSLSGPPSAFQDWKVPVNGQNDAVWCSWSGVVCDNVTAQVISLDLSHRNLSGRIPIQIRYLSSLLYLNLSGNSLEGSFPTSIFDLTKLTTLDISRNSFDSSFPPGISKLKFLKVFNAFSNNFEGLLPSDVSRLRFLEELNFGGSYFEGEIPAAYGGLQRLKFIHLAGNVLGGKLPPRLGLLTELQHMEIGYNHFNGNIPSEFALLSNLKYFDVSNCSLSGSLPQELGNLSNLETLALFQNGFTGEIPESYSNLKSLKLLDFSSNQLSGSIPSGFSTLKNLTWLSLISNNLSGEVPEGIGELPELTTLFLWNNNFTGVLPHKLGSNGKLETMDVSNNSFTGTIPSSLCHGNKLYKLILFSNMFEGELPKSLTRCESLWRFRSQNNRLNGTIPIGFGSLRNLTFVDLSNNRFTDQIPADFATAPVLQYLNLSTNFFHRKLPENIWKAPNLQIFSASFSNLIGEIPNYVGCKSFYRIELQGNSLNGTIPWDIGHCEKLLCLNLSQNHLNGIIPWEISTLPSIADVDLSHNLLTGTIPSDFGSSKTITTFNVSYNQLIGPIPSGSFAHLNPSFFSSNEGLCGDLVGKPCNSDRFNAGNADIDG

[2] = target: T2, ecdTDR mutant with all five N-terminal anchoring site-binding residues replaced by alanine (Arabidopsis thaliana, UniProt Q9FII5 30-642); assay: as above; settings: both partners purified
T2 chain: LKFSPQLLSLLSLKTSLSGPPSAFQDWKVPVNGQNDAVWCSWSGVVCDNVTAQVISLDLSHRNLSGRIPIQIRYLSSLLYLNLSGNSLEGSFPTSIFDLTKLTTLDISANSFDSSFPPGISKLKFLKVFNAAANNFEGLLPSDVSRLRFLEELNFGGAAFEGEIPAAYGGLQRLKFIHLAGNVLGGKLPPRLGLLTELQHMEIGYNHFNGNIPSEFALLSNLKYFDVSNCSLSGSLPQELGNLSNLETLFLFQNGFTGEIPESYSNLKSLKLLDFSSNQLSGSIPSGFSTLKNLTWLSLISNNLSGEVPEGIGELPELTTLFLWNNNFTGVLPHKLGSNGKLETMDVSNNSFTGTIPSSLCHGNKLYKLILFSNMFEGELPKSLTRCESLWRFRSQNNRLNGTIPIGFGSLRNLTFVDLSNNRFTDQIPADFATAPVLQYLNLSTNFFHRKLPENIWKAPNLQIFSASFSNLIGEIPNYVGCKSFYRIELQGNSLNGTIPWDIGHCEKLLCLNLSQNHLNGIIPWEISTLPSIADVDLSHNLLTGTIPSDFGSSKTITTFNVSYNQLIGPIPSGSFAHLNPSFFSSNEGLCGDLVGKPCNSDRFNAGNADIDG

B1: Tracheary Element Differentiation Inhibitory Factor (TDIF) peptide (peptide)
peptide: HEV[Hyp]SG[Hyp]NPISN
notes: TDIF, the 12-residue CLE peptide processed from CLE41 and CLE44 of A. thaliana; printed as HEV(Hyp)SG(Hyp)NPISN; numbers count on: the 12-residue peptide; CLE44 encodes the same peptide; also called wild type TDIF; wtTDIF; source: synthetic peptide (peptide 2.0)
binding result [1]: binds
fold decrease in affinity against wild-type ecdTDR [2]: 31.4 fold
